Data reported in patent publication US20260217779A1 (Chugai, published 2026).

B1: hCXCL11-G1T4k.one//VHn-G1T4h.one.H435R (Fc fusion)
chain 1: FPMFKRGRCLCIGPGVKAVKVADIEKASIMYPSNNCDKIEVIITLKENKGQRCLNPKSKQARLIIKKVERKNFEPKSSDKTHTCPPCPAPELRRGPSVFLFPPKPKDTLMISRTPEVTCVVVDVSHEDPEVKFNWYVDGVEVHNAKTKPREEQYNSTYRVVSVLTVLHQDWLNGKEYKCKVSNKGLPSSIEKTISKAKGQPREPQVCTLPPSREEMTKNQVSLWCLVKGFYPSDIAVEWESNGQPENNYKTTPPVLDSDGSFFLYSKLTVDKSRWQEGNVFSCSVMHEALHNHYTQKSLSLSP
chain 2: EPKSSDKTHTCPPCPAPELRRGPSVFLFPPKPKDTLMISRTPEVTCVVVDVSHEDPEVKFNWYVDGVEVHNAKTKPREEQYNSTYRVVSVLTVLHQDWLNGKEYKCKVSNKGLPSSIEKTISKAKGQPREPQVYTLPPSRCEMTKNQVSLSCAVKGFYPSDIAVEWESNGQPENNYKTTPPVLDSDGSFFLVSKLTVDKSRWQEGNVFSCSVMHEALHNRYTQKSLSLSP
B2: hCXCL11.0007-G1T4k.one//VHn-G1T4h.one.H435R (Fc fusion)
chain 1: FGMFKRGRCLCIGPGVKAVKVADIEKASIMYPSNNCDKIEVIITLKENKGQRCLNPKSKQARLIIKKVERKNFEPKSSDKTHTCPPCPAPELRRGPSVFLFPPKPKDTLMISRTPEVTCVVVDVSHEDPEVKFNWYVDGVEVHNAKTKPREEQYNSTYRVVSVLTVLHQDWLNGKEYKCKVSNKGLPSSIEKTISKAKGQPREPQVCTLPPSREEMTKNQVSLWCLVKGFYPSDIAVEWESNGQPENNYKTTPPVLDSDGSFFLYSKLTVDKSRWQEGNVFSCSVMHEALHNHYTQKSLSLSP
chain 2: EPKSSDKTHTCPPCPAPELRRGPSVFLFPPKPKDTLMISRTPEVTCVVVDVSHEDPEVKFNWYVDGVEVHNAKTKPREEQYNSTYRVVSVLTVLHQDWLNGKEYKCKVSNKGLPSSIEKTISKAKGQPREPQVYTLPPSRCEMTKNQVSLSCAVKGFYPSDIAVEWESNGQPENNYKTTPPVLDSDGSFFLVSKLTVDKSRWQEGNVFSCSVMHEALHNRYTQKSLSLSP
B3: hCXCL11.0003-G1T4k.one//VHn-G1T4h.one.H435R (Fc fusion)
chain 1: FAMFKRGRCLCIGPGVKAVKVADIEKASIMYPSNNCDKIEVIITLKENKGQRCLNPKSKQARLIIKKVERKNFEPKSSDKTHTCPPCPAPELRRGPSVFLFPPKPKDTLMISRTPEVTCVVVDVSHEDPEVKFNWYVDGVEVHNAKTKPREEQYNSTYRVVSVLTVLHQDWLNGKEYKCKVSNKGLPSSIEKTISKAKGQPREPQVCTLPPSREEMTKNQVSLWCLVKGFYPSDIAVEWESNGQPENNYKTTPPVLDSDGSFFLYSKLTVDKSRWQEGNVFSCSVMHEALHNHYTQKSLSLSP
chain 2: EPKSSDKTHTCPPCPAPELRRGPSVFLFPPKPKDTLMISRTPEVTCVVVDVSHEDPEVKFNWYVDGVEVHNAKTKPREEQYNSTYRVVSVLTVLHQDWLNGKEYKCKVSNKGLPSSIEKTISKAKGQPREPQVYTLPPSRCEMTKNQVSLSCAVKGFYPSDIAVEWESNGQPENNYKTTPPVLDSDGSFFLVSKLTVDKSRWQEGNVFSCSVMHEALHNRYTQKSLSLSP
B4: hCXCL11.0005-G1T4k.one//VHn-G1T4h.one.H435R (Fc fusion)
chain 1: FEMFKRGRCLCIGPGVKAVKVADIEKASIMYPSNNCDKIEVIITLKENKGQRCLNPKSKQARLIIKKVERKNFEPKSSDKTHTCPPCPAPELRRGPSVFLFPPKPKDTLMISRTPEVTCVVVDVSHEDPEVKFNWYVDGVEVHNAKTKPREEQYNSTYRVVSVLTVLHQDWLNGKEYKCKVSNKGLPSSIEKTISKAKGQPREPQVCTLPPSREEMTKNQVSLWCLVKGFYPSDIAVEWESNGQPENNYKTTPPVLDSDGSFFLYSKLTVDKSRWQEGNVFSCSVMHEALHNHYTQKSLSLSP
chain 2: EPKSSDKTHTCPPCPAPELRRGPSVFLFPPKPKDTLMISRTPEVTCVVVDVSHEDPEVKFNWYVDGVEVHNAKTKPREEQYNSTYRVVSVLTVLHQDWLNGKEYKCKVSNKGLPSSIEKTISKAKGQPREPQVYTLPPSRCEMTKNQVSLSCAVKGFYPSDIAVEWESNGQPENNYKTTPPVLDSDGSFFLVSKLTVDKSRWQEGNVFSCSVMHEALHNRYTQKSLSLSP
B5: hCXCL11.0006-G1T4k.one//VHn-G1T4h.one.H435R (Fc fusion)
chain 1: FFMFKRGRCLCIGPGVKAVKVADIEKASIMYPSNNCDKIEVIITLKENKGQRCLNPKSKQARLIIKKVERKNFEPKSSDKTHTCPPCPAPELRRGPSVFLFPPKPKDTLMISRTPEVTCVVVDVSHEDPEVKFNWYVDGVEVHNAKTKPREEQYNSTYRVVSVLTVLHQDWLNGKEYKCKVSNKGLPSSIEKTISKAKGQPREPQVCTLPPSREEMTKNQVSLWCLVKGFYPSDIAVEWESNGQPENNYKTTPPVLDSDGSFFLYSKLTVDKSRWQEGNVFSCSVMHEALHNHYTQKSLSLSP
chain 2: EPKSSDKTHTCPPCPAPELRRGPSVFLFPPKPKDTLMISRTPEVTCVVVDVSHEDPEVKFNWYVDGVEVHNAKTKPREEQYNSTYRVVSVLTVLHQDWLNGKEYKCKVSNKGLPSSIEKTISKAKGQPREPQVYTLPPSRCEMTKNQVSLSCAVKGFYPSDIAVEWESNGQPENNYKTTPPVLDSDGSFFLVSKLTVDKSRWQEGNVFSCSVMHEALHNRYTQKSLSLSP
B6: hCXCL11.0004-G1T4k.one//VHn-G1T4h.one.H435R (Fc fusion)
chain 1: FDMFKRGRCLCIGPGVKAVKVADIEKASIMYPSNNCDKIEVIITLKENKGQRCLNPKSKQARLIIKKVERKNFEPKSSDKTHTCPPCPAPELRRGPSVFLFPPKPKDTLMISRTPEVTCVVVDVSHEDPEVKFNWYVDGVEVHNAKTKPREEQYNSTYRVVSVLTVLHQDWLNGKEYKCKVSNKGLPSSIEKTISKAKGQPREPQVCTLPPSREEMTKNQVSLWCLVKGFYPSDIAVEWESNGQPENNYKTTPPVLDSDGSFFLYSKLTVDKSRWQEGNVFSCSVMHEALHNHYTQKSLSLSP
chain 2: EPKSSDKTHTCPPCPAPELRRGPSVFLFPPKPKDTLMISRTPEVTCVVVDVSHEDPEVKFNWYVDGVEVHNAKTKPREEQYNSTYRVVSVLTVLHQDWLNGKEYKCKVSNKGLPSSIEKTISKAKGQPREPQVYTLPPSRCEMTKNQVSLSCAVKGFYPSDIAVEWESNGQPENNYKTTPPVLDSDGSFFLVSKLTVDKSRWQEGNVFSCSVMHEALHNRYTQKSLSLSP

Target: T1, human CXCR3 (hCXCR3) on Ba/F3 transfectant cells (human, UniProt P49682 1-368)
T1 sequence: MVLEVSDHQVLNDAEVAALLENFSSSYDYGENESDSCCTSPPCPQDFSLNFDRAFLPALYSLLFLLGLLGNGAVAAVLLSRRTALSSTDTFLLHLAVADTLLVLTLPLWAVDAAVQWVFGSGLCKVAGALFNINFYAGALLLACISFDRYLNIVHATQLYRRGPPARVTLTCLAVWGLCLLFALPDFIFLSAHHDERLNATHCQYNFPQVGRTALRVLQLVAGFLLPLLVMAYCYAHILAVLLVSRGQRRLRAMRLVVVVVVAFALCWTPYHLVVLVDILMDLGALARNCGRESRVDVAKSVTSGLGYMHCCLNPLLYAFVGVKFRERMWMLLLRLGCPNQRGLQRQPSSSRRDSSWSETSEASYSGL
Test: cell-based or functional assay

Row | Binder | Luminescence value at 33 nM | Luminescence value at 100 nM | Luminescence value at 300 nM | Activity retention rate at 33 nM | Activity retention rate at 100 nM | Activity retention rate at 300 nM
1 | B1 | 7.68e+06 | 1.67e+07 | 1.24e+07 |  |  | 
2 | B2 | 3.47e+06 | 1.02e+07 | 9.71e+06 | 45% | 61% | 78%
3 | B3 | 3.76e+06 | 1.17e+07 | 1.12e+07 | 49% | 70% | 90%
4 | B4 | 3.11e+06 | 9.59e+06 | 6.03e+06 | 40% | 57% | 49%
5 | B5 | 326000 | 4.55e+06 | 9.79e+06 | 4% | 27% | 79%
6 | B6 | 3.15e+06 | 9.44e+06 | 5.24e+06 | 41% | 57% | 42%
